Target: T1, anti-BCMA antibody clone C29 Fab
T1 construct: also called anti-BCMA clone C29 Fab
Assay: Biacore (SPR), 25 C, HEPES buffer pH 7.4
Protocol: E10 purified from the hybridoma cell line supernatant was analyzed by Biacore assay against the antigen anti-BCMA clone C29 Fab. The Biacore assay was run, for example, in 10 mM HEPES buffer, with 150 mM NaCl and 0.05% Tween20 at pH 7.4 and 1 mg/mL BSA at 25° C.

T1 sequence (VH, as listed by the source, chain 1 of 2): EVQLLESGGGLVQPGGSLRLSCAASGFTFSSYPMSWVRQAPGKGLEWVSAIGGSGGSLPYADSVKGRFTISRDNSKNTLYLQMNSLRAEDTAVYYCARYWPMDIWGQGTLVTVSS
T1 sequence (VL, as listed by the source, chain 2 of 2): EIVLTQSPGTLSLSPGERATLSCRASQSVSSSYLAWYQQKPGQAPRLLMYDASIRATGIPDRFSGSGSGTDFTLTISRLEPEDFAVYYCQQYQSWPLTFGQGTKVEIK

B1: anti-idiotypic antibody clone 87B12.E10 (E10), purified from hybridoma cell line (antibody, V domains shown)
VH: QVQLQQSGPGLVQPSQSLSIPCTVSGFSLTSYDVHWVRQSPGKGLEWLGVIWSGGSTGYNAIFRSRLSINKDNSKSQVFFKMTSLQPDDTAIYYCANFSPWYLPSYWDQGTLVTVSA
VL: QIVLTQSPAIMSASPGEKVTITCSASSNVSYMHWFQQKPGTSPKLWIYSTSNLASGVPARFSGSGSGTSYSLTISRMEAEDAATYYCQQRSSYPLTFGAGTKLELK
notes: Mouse (Balb/c) hybridoma antibody; also called E10 purified Ab from hybridoma cell line
Kd: 110 pM | koff: 0.000157 s⁻¹ | kon: 1.48e+06 M⁻¹ s⁻¹ | t1/2: 1.23 h
